In publication doi:10.1101/2020.12.16.421545v1 one finds K0.5 and kcat data, which are given here for one protein.

Substrate in the data set: CCCC(=O)Oc1ccc([N+](=O)[O-])cc1
The experiment in a line: purified protein. Type of data set: biochemical, uncultured Pseudomonadota bacterium. Conditions: 36 nM enzyme, no added Co2+.

Where [1] appears, read: without Triton X-100, sigmoidal (hysteresis).

B1: Ade1 (Amazonian Dark Earth Esterase 1) (uncultured Pseudomonadota bacterium) (protein)
chain: MLYAQVNGINLHYEIEGQGQPLLLIMGLGAPAAAWDPIFVQTLTKTHQVIIYDNRGTGLSDKPDMPYSIAMFASDAVGLLDALNIPRAHVFGVSMGGMIAQELAIHYPQRVASLILGCTTPGGKHAVPAPPESLKALEGRAGLTPEEAIREGWKLSFSEEFIHTHKAELEAHIPRLLAQLTPRFAYERHFQATMTLRVFKQLKEIQAPTLVATGRDDMLIPAVNSEILAREIPGAELAIFESAGHGFVTSAREPFLKVLKEFLARQSV
Broadly, the kcat is the number of substrate molecules converted per active site and unit of time at saturation. Take B1: the K0.5 reads like this: (with Triton X-100) 254 ± 25 µM; under setting [1], 392 ± 29 µM. The catalytic constant (kcat) runs as follows: (with Triton X-100) 47 ± 1 s⁻¹; under setting [1], 94 ± 3 s⁻¹.
